Tests used:
[1] = molecular target: GST-integrin β1 fusion protein (residues 752 to 798), wild type (UniProt P05556); assay: SPR
[2] = molecular target: GST-KRIT1 (residues 170–198), wild type (human) (UniProt O00522); assay: SPR
Chain of GST-KRIT1 (residues 170–198), wild type (human) (O00522 170-198): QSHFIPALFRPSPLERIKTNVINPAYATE

Chain of GST-integrin β1 fusion protein (residues 752 to 798), wild type (P05556 752-798): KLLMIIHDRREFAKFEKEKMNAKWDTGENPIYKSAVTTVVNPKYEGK

Kd [1]: 5 µM
Kd [2]: 1.24 µM
Substance: ICAP1 (analyte of the surface plasmon resonance) (from UniProt O14713 1-200) (domain or fragment)

— paper PMC3684052
